Experimental data published in US20210130436A1 (published 2021).
Where a chain is given by its changes, count along the chain named. In names and notes the source's numbering stands.

B1: WT CD80 ECD-Fc H22.6 (Fc fusion, not shown: a dimerising Fc or GST)
chain: VIHVTKEVKEVATLSCGHNVSVEELAQTRIYWQKEKKMVLTMMSGDMNIWPEYKNRTIFDITNNLSIVILALRPSDEGTYECVVLKYEKDAFKREHLAEVTLSVKADFPTPSISDFEIPTSNIRRIICSTSGGFPEPHLSWLENGEELNAINTTVSQDPETELYAVSSKLDFNMTTNHSFMCLIKYGHLRVNQTFNWNTTKQEHFPDN
notes: Control; The token H22.6 is not explained
B2: variant CD80 IgV-Fc M47L (Fc fusion, not shown: small tags and cut ends; a dimerising Fc or GST)
chain: VIHVTKEVKEVATLSCGHNVSVEELAQTRIYWQKEKKMVLTMMSGDLNIWPEYKNRTIFDITNNLSIVILALRPSDEGTYECVVLKYEKDAFKREHLAEVTLSVKAD
B3: variant CD80 IgV-Fc D46V/M47L/V68M (Fc fusion, not shown: small tags and cut ends; a dimerising Fc or GST)
chain: B2 chain with D46V, V68M
B4: variant CD80 IgV-Fc D46V/L85Q (Fc fusion, not shown: small tags and cut ends; a dimerising Fc or GST)
chain: B2 chain with D46V, L47M, L85Q
B5: variant CD80 IgV-Fc D46V/M47L/L85Q (Fc fusion, not shown: small tags and cut ends; a dimerising Fc or GST)
chain: B2 chain with D46V, L85Q
B6: variant CD80 IgV-Fc Q33R/E35D/K37E/M47V/L85Q (Fc fusion, not shown: a dimerising Fc or GST)
chain: B2 chain with Q33R, E35D, K37E, L47V, L85Q
B7: variant CD80 IgV-Fc Q27H/E35D/M47L/L85Q/R94Q/E95K (Fc fusion, not shown: a dimerising Fc or GST)
chain: B2 chain with Q27H, E35D, L85Q, R94Q, E95K
B8: variant CD80 IgV-Fc Q33K/E35D/M47V/K89E/K93R (Fc fusion, not shown: a dimerising Fc or GST)
chain: B2 chain with Q33K, E35D, L47V, K89E, K93R
B9: variant CD80 IgV-Fc S15P/Q33L/E35D/M47L/L85Q (Fc fusion, not shown: a dimerising Fc or GST)
chain: B2 chain with S15P, Q33L, E35D, L85Q
B10: variant CD80 IgV-Fc L85Q (Fc fusion, not shown: small tags and cut ends; a dimerising Fc or GST)
chain: B2 chain with L47M, L85Q
B11: variant CD80 IgV-Fc M47L/L85Q (Fc fusion, not shown: small tags and cut ends; a dimerising Fc or GST)
chain: B2 chain with L85Q
B12: variant CD80 IgV-Fc E35D/D46V/M47L/V68M (Fc fusion, not shown: small tags and cut ends; a dimerising Fc or GST)
chain: B2 chain with E35D, D46V, V68M
B13: variant CD80 IgV-Fc D46V/M47L (Fc fusion, not shown: small tags and cut ends; a dimerising Fc or GST)
chain: B2 chain with D46V
B14: variant CD80 IgV-Fc E35D/D46V (Fc fusion, not shown: small tags and cut ends; a dimerising Fc or GST)
chain: B2 chain with E35D, D46V, L47M
B15: variant CD80 IgV-Fc D46V/M47L/V68M/L85Q (Fc fusion, not shown: small tags and cut ends; a dimerising Fc or GST)
chain: B2 chain with D46V, V68M, L85Q
B16: variant CD80 IgV-Fc E35D/D46V/V68M (Fc fusion, not shown: small tags and cut ends; a dimerising Fc or GST)
chain: B2 chain with E35D, D46V, L47M, V68M
B17: variant CD80 IgV-Fc E35D/D46V/V68M/L85Q (Fc fusion, not shown: small tags and cut ends; a dimerising Fc or GST)
chain: B2 chain with E35D, D46V, L47M, V68M, L85Q
B18: variant CD80 IgV-Fc D46V/V68M/L85Q (Fc fusion, not shown: small tags and cut ends; a dimerising Fc or GST)
chain: B2 chain with D46V, L47M, V68M, L85Q
B19: variant CD80 IgV-Fc E35D/D46V/M47L (Fc fusion, not shown: small tags and cut ends; a dimerising Fc or GST)
chain: B2 chain with E35D, D46V
B20: variant CD80 IgV-Fc E35D/M47I/K54R/L85E (Fc fusion, not shown: a dimerising Fc or GST)
chain: B2 chain with E35D, L47I, K54R, L85E
B21: variant CD155 IgV-Fc L104E (Fc fusion, not shown: a dimerising Fc or GST)
chain: WPPPGTGDVVVQAPTQVPGFLGDSVTLPCYLQVPNMEVTHVSQLTWARHGESGSMAVFHQTQGPSYSESKRLEFVAARLGAELRNASLRMFGLRVEDEGNYTCEFVTFPQGSRSVDIWLRVL
B22: variant CD155 IgV-Fc L104Q (Fc fusion, not shown: a dimerising Fc or GST)
chain: B21 chain with E104Q
B23: variant CD155 IgV-Fc S52M/V57L (Fc fusion, not shown: a dimerising Fc or GST)
chain: B21 chain with S52M, V57L, E104L
B24: variant CD155 IgV-Fc S42C/S52L (Fc fusion, not shown: a dimerising Fc or GST)
chain: B21 chain with S42C, S52L, E104L
B25: variant CD155 IgV-Fc S42G (Fc fusion, not shown: a dimerising Fc or GST)
chain: B21 chain with S42G, E104L

These binders were tested against T1, CD28 on Jurkat/IL2 reporter cells (human, UniProt P10747 19-220) (assay: flow cytometry, Jurkat cells (CD28)).
T1 construct: whole, on cells; Endogenous CD28 of Jurkat cells; also called Jurkats (CD28)

Row | Binder | MFI at 33.3 nM [MFI]
1 | B1 | 43

What follows are binders tested against T2, human PD-L1, full-length, on CHO cells (human, UniProt Q9NZQ7 19-290) (assay: flow cytometry; PD-L1 MFI over CD28 MFI).
T2 construct: also called huPD-L1; CD274
T2 sequence (Q9NZQ7 19-290): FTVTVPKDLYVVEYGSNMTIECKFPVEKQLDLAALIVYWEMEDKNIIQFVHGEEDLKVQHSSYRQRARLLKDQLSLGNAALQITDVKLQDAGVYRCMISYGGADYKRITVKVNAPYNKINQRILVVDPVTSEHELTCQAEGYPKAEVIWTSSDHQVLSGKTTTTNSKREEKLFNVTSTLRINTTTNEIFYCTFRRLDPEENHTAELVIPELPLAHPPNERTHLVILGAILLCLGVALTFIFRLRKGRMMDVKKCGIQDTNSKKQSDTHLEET

Row | Binder | Ratio of PDL1:CD28 [ratio]
2 | B2 | 6.1
3 | B3 | 12.8
4 | B4 | 16.8
5 | B5 | 10.5

These binders were tested against T3, CD28 (endogenously expressed on Jurkat/IL2 reporter cells) (human, UniProt P10747 19-220) (assay: flow cytometry, Jurkat/IL2 reporter cells (endogenous CD28), PE anti-human Fc).
T3 construct: Endogenous CD28 of Jurkat cells; also called human CD28

Row | Binder | MFI at 33.3 nM [MFI]
6 | B6 | 258
7 | B7 | 282
8 | B8 | 276
9 | B9 | 266

These binders were tested against T2, human PD-L1, full-length, on CHO cells (assay: flow cytometry, CHO/PD-L1 cells; MFI relative to WT CD80 ECD-Fc).

Row | Binder | Fold change to WT CD80 [fold]
10 | B2 | 14.8
11 | B3 | 219
12 | B4 | 17.2
13 | B5 | 46.7

What follows are binders tested against T4, CD28 endogenously expressed on Jurkat/IL2 reporter cells (human, UniProt P10747 19-220) (assay: flow cytometry, Jurkat cells (CD28); MFI relative to WT CD80 ECD-Fc).
T4 construct: also called Jurkats (CD28)

Row | Binder | Fold change to WT CD80 [fold]
14 | B2 | 0.4
15 | B3 | 3.1
16 | B4 | 0.2
17 | B5 | 0.8

These binders were tested against T4, CD28 endogenously expressed on … (assay: flow cytometry, Jurkat cells (CD28)).

Row | Binder | MFI at 33.3 nM [MFI]
18 | B2 | 309
19 | B3 | 2180
20 | B10 | 35
21 | B4 | 131
22 | B11 | 88.1
23 | B5 | 567

What follows are binders tested against T2, human PD-L1, full-length, on CHO cells (assay: flow cytometry, CHO cells stably expressing PD-L1).

Row | Binder | MFI at 33.3 nM [MFI]
24 | B2 | 1900
25 | B12 | 29300
26 | B3 | 28000
27 | B13 | 3900
28 | B14 | 3970
29 | B10 | 97
30 | B15 | 29700
31 | B16 | 26100
32 | B4 | 2200
33 | B11 | 5800
34 | B17 | 23600
35 | B5 | 5980
36 | B18 | 4170
37 | B19 | 7990

These binders were tested against T5, human CTLA4 (CTLA-4), full-length, on CHO cells (human, UniProt P16410 36-223) (assay: flow cytometry, CHO cells stably expressing CTLA4).
T5 construct: also called huCTLA4
T5 sequence (P16410 36-223): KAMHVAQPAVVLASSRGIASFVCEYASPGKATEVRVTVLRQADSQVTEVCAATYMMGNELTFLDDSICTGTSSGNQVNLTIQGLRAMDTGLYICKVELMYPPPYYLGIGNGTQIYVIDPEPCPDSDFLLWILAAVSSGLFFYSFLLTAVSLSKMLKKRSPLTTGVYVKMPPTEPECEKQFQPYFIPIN

Row | Binder | MFI at 33.3 nM [MFI]
38 | B2 | 30800
39 | B12 | 34300
40 | B3 | 34700
41 | B13 | 49700
42 | B14 | 50100
43 | B10 | 3000
44 | B15 | 32500
45 | B16 | 31200
46 | B4 | 41900
47 | B17 | 32200
48 | B5 | 40200
49 | B18 | 7570
50 | B19 | 45000

These binders were tested against T6, human PD-L1 (full-length, expressed on CHO cells) (human, UniProt Q9NZQ7 19-290) (assay: flow cytometry, CHO cells expressing huPD-L1, PE anti-human Fc).
T6 construct: also called huPD-L1; CD274
T6 sequence (Q9NZQ7 19-290): as the sequence (Q9NZQ7 19-290) above

Row | Binder | MFI at 33.3 nM [MFI]
51 | B20 | 36900
52 | B6 | 44400
53 | B7 | 36100
54 | B8 | 39100

These binders were tested against T5, human CTLA4 (CTLA-4), full-length, on … (assay: flow cytometry, CHO/CTLA4 cells; MFI relative to WT CD80 ECD-Fc).

Row | Binder | Fold change to WT CD80 [fold]
55 | B2 | 0.8
56 | B3 | 0.9
57 | B4 | 1
58 | B5 | 1

What follows are binders tested against T7, CD96 (UniProt P40200 22-585, limits assumed) (assay: flow cytometry, Fc fusion at 100 nM, CD96-transfected cells).
T7 construct: whole, on cells
T7 sequence (looked up): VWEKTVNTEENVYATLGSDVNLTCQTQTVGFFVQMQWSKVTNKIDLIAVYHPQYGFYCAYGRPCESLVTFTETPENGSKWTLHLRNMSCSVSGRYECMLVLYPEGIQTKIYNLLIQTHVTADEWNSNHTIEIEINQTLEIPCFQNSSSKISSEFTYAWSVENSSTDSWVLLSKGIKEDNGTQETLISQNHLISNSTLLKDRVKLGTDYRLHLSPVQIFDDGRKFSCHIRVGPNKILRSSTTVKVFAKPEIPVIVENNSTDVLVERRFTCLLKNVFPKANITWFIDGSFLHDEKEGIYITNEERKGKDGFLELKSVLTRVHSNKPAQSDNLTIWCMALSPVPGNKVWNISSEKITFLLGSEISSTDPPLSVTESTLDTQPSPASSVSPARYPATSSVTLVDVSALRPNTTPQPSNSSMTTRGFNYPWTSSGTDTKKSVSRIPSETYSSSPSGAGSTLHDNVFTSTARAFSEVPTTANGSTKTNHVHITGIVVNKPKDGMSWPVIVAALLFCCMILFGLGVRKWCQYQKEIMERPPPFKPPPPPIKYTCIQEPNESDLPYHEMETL

Row | Binder | MFI at 100 nM [MFI]
59 | B21 | 1560
60 | B22 | 1540
61 | B23 | 1860
62 | B24 | 1480
63 | B25 | 1700

Each binder was assayed against T8, CD226 (Homo sapiens (Human), UniProt Q15762 19-336) (assay: flow cytometry, Fc fusion at 100 nM, CD226-transfected cells).
T8 sequence: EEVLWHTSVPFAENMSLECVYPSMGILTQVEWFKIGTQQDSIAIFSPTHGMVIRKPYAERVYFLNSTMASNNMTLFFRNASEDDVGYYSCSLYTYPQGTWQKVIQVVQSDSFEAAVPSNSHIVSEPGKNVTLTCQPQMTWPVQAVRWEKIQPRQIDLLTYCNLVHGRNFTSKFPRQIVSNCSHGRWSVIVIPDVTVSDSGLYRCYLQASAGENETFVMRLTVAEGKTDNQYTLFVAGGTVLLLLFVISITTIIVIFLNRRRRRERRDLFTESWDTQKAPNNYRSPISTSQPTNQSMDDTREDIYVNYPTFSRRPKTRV

Row | Binder | MFI at 100 nM [MFI]
64 | B22 | 3790
65 | B23 | 2430
66 | B24 | 2150
67 | B25 | 2450
